Experimental findings from publication PMC9253678, “Computer-Aided Design of α-L-Rhamnosidase to Increase the Synthesis Efficiency of Icariside I” (Frontiers in Bioengineering and Biotechnology, 2022) are described below.

Substrate in this series: COc1ccc(-c2oc3c(CC=C(C)C)c(O[C@@H]4O[C@H](CO)[C@@H](O)[C@H](O)[C@H]4O)cc(O)c3c(=O)c2O[C@@H]2O[C@@H](C)[C@H](O)[C@@H](O)[C@H]2O)cc1
Briefly: HPLC of icariside I formation, Michaelis-Menten nonlinear fit. Type of series: biochemical, Thermotoga petrophila. An excerpt: HPLC of icariside I formation, Michaelis-Menten nonlinear fit on […]

[1] abbreviates: optimal conditions of the mutant: 85°C, pH 4.6, icariin 0.1–4 mg/ml.
[2] abbreviates: optimal conditions of the mutant: 80°C, pH 5.0, icariin 0.1–4 mg/ml.
Where [3] appears, read: optimal conditions of the mutant: 85°C, pH 5.0, icariin 0.1–4 mg/ml.
[4] abbreviates: optimal conditions of the mutant: 80°C, pH 6.0, icariin 0.1–4 mg/ml.
The mark [5] stands for this setting: optimal conditions of the enzyme: 80°C, pH 5.0, disodium hydrogen phosphate-citrate buffer, icariin 0.1–4 mg/ml.

B1: TpeRha (Thermotoga petrophila RKU-1; D506A/H570A/K579A) (protein)
chain: MIQACDLRCEYLTSPVLGLDVIPRFSWRLKGNGKKQTRYKIIVSDNFDDIERGIGNVWESEKDSSKNLNIEYEGPKLKAYKGYYWRVKLWDEKENGPWSETAYFEMGPLEDWRGKWITMPSPLSFKDPAHRHELFYAMYFRKEFLLNKEVEKARVYVSGLGVYELHLNGKRVGNNVLDPAPTDYNKVALYSTYDVTQYLTTGKNTIGVILGNGRHIRDYGYSKPKLYLQLLVFYKDGSREFICSDETWKVSHGPLKENGIYFGEVYDARDEISGWDSPGFDDRNWSEVEIVEGPSLKAQLIPVIRVCEVIKPKRLWLSSRGTFIVDFGKNISGWVKLRVNNGKRGEKIIIRYAEVLDPSMDRLDTRNLRLARATDEYILKGQGVEIYEPRFTYHGFRYVEVEDYPGTLTSDNIEAMFVHTDVEKVGDFACSSELLNKIHSCVVNSQLANLMGIPTDCPQRDERMGWLGDAQLTVEEAMYNFDMAAFYTKYLMDIKLSQKEDGSISAVAPPYWKRYPSDPAWGTAYATILWYLYFFYEDRRVLEEHYDSLKRYVEFLRKNSPNHLTKLGQAGDWCPPGDAFPKRTPLILTSTWYYYHDTLILSEIAKILGKKEDEHEYRKLAGEIKEAFNRHFLRKVEDHTGRIVCFYRGIKLSPKDRIPTTQTCNVLPLWNKMVPEECREDVFKVLERLIEVDNDTHFDTGIVGTRYILEVLSENGRKDLALKLLLKEDYPSFGYMIKNGATTLWERWEKLEGTGMNSHNHVMLGSVDTWFYKYLSGIKPVAPGWKKIRIEPYFADQIDFVSAKIKTPNGSLEVSWKKQNKEYEIQIIIPVNTVGIFAVPESFKVSAINSKQVSYPSEFELEPGAYNIVLERVREC
notes: codon-optimized synthetic gene in pET-28a, E. coli BL21(DE3), Ni-NTA purified (His tag of vector); model domains span 1-861
For orientation: Km means the substrate concentration at which the rate is half of its maximum. The term Vmax denotes the rate approached at saturating substrate. What is called kcat is the number of substrate molecules converted per active site and unit of time at saturation. The term kcat/Km denotes the turnover number divided by the Michaelis constant. Consider B1, for which, under setting [1], the Km turned out to be 1.11 ± 0.34 µM, the Vmax amounted to 6.59 µM/min, the kcat is 0.000212 s⁻¹ and the kcat/Km was determined as 191 M⁻¹ s⁻¹.

B2: TpeRha (Thermotoga petrophila RKU-1; K579A) (protein)
chain: MIQACDLRCEYLTSPVLGLDVIPRFSWRLKGNGKKQTRYKIIVSDNFDDIERGIGNVWESEKDSSKNLNIEYEGPKLKAYKGYYWRVKLWDEKENGPWSETAYFEMGPLEDWRGKWITMPSPLSFKDPAHRHELFYAMYFRKEFLLNKEVEKARVYVSGLGVYELHLNGKRVGNNVLDPAPTDYNKVALYSTYDVTQYLTTGKNTIGVILGNGRHIRDYGYSKPKLYLQLLVFYKDGSREFICSDETWKVSHGPLKENGIYFGEVYDARDEISGWDSPGFDDRNWSEVEIVEGPSLKAQLIPVIRVCEVIKPKRLWLSSRGTFIVDFGKNISGWVKLRVNNGKRGEKIIIRYAEVLDPSMDRLDTRNLRLARATDEYILKGQGVEIYEPRFTYHGFRYVEVEDYPGTLTSDNIEAMFVHTDVEKVGDFACSSELLNKIHSCVVNSQLANLMGIPTDCPQRDERMGWLGDAQLTVEEAMYNFDMAAFYTKYLMDIKLSQKEDGSISDVAPPYWKRYPSDPAWGTAYATILWYLYFFYEDRRVLEEHYDSLKRYVEFLRKNSPNHLTKLGQHGDWCPPGDAFPKRTPLILTSTWYYYHDTLILSEIAKILGKKEDEHEYRKLAGEIKEAFNRHFLRKVEDHTGRIVCFYRGIKLSPKDRIPTTQTCNVLPLWNKMVPEECREDVFKVLERLIEVDNDTHFDTGIVGTRYILEVLSENGRKDLALKLLLKEDYPSFGYMIKNGATTLWERWEKLEGTGMNSHNHVMLGSVDTWFYKYLSGIKPVAPGWKKIRIEPYFADQIDFVSAKIKTPNGSLEVSWKKQNKEYEIQIIIPVNTVGIFAVPESFKVSAINSKQVSYPSEFELEPGAYNIVLERVREC
notes: as for B1
As to B2, under setting [2], the Michaelis-Menten constant (Km) is 1.24 ± 0.09 µM, the maximal velocity (Vmax) was found to be 1.97 µM/min, the kcat is 4.31e-05 s⁻¹ and the kcat/Km came out at 34.7 M⁻¹ s⁻¹.

B3: TpeRha (Thermotoga petrophila RKU-1; D506A) (protein)
chain: MIQACDLRCEYLTSPVLGLDVIPRFSWRLKGNGKKQTRYKIIVSDNFDDIERGIGNVWESEKDSSKNLNIEYEGPKLKAYKGYYWRVKLWDEKENGPWSETAYFEMGPLEDWRGKWITMPSPLSFKDPAHRHELFYAMYFRKEFLLNKEVEKARVYVSGLGVYELHLNGKRVGNNVLDPAPTDYNKVALYSTYDVTQYLTTGKNTIGVILGNGRHIRDYGYSKPKLYLQLLVFYKDGSREFICSDETWKVSHGPLKENGIYFGEVYDARDEISGWDSPGFDDRNWSEVEIVEGPSLKAQLIPVIRVCEVIKPKRLWLSSRGTFIVDFGKNISGWVKLRVNNGKRGEKIIIRYAEVLDPSMDRLDTRNLRLARATDEYILKGQGVEIYEPRFTYHGFRYVEVEDYPGTLTSDNIEAMFVHTDVEKVGDFACSSELLNKIHSCVVNSQLANLMGIPTDCPQRDERMGWLGDAQLTVEEAMYNFDMAAFYTKYLMDIKLSQKEDGSISAVAPPYWKRYPSDPAWGTAYATILWYLYFFYEDRRVLEEHYDSLKRYVEFLRKNSPNHLTKLGQHGDWCPPGDKFPKRTPLILTSTWYYYHDTLILSEIAKILGKKEDEHEYRKLAGEIKEAFNRHFLRKVEDHTGRIVCFYRGIKLSPKDRIPTTQTCNVLPLWNKMVPEECREDVFKVLERLIEVDNDTHFDTGIVGTRYILEVLSENGRKDLALKLLLKEDYPSFGYMIKNGATTLWERWEKLEGTGMNSHNHVMLGSVDTWFYKYLSGIKPVAPGWKKIRIEPYFADQIDFVSAKIKTPNGSLEVSWKKQNKEYEIQIIIPVNTVGIFAVPESFKVSAINSKQVSYPSEFELEPGAYNIVLERVREC
notes: as for B1
As for B3, under setting [3], the Km came out at 3.12 ± 0.26 µM, the Vmax stood at 1.91 µM/min, the kcat turned out to be 4.64e-05 s⁻¹ and the kcat/Km worked out at 14.9 M⁻¹ s⁻¹.

B4: TpeRha (Thermotoga petrophila RKU-1; D506A/H570A) (protein)
chain: MIQACDLRCEYLTSPVLGLDVIPRFSWRLKGNGKKQTRYKIIVSDNFDDIERGIGNVWESEKDSSKNLNIEYEGPKLKAYKGYYWRVKLWDEKENGPWSETAYFEMGPLEDWRGKWITMPSPLSFKDPAHRHELFYAMYFRKEFLLNKEVEKARVYVSGLGVYELHLNGKRVGNNVLDPAPTDYNKVALYSTYDVTQYLTTGKNTIGVILGNGRHIRDYGYSKPKLYLQLLVFYKDGSREFICSDETWKVSHGPLKENGIYFGEVYDARDEISGWDSPGFDDRNWSEVEIVEGPSLKAQLIPVIRVCEVIKPKRLWLSSRGTFIVDFGKNISGWVKLRVNNGKRGEKIIIRYAEVLDPSMDRLDTRNLRLARATDEYILKGQGVEIYEPRFTYHGFRYVEVEDYPGTLTSDNIEAMFVHTDVEKVGDFACSSELLNKIHSCVVNSQLANLMGIPTDCPQRDERMGWLGDAQLTVEEAMYNFDMAAFYTKYLMDIKLSQKEDGSISAVAPPYWKRYPSDPAWGTAYATILWYLYFFYEDRRVLEEHYDSLKRYVEFLRKNSPNHLTKLGQAGDWCPPGDKFPKRTPLILTSTWYYYHDTLILSEIAKILGKKEDEHEYRKLAGEIKEAFNRHFLRKVEDHTGRIVCFYRGIKLSPKDRIPTTQTCNVLPLWNKMVPEECREDVFKVLERLIEVDNDTHFDTGIVGTRYILEVLSENGRKDLALKLLLKEDYPSFGYMIKNGATTLWERWEKLEGTGMNSHNHVMLGSVDTWFYKYLSGIKPVAPGWKKIRIEPYFADQIDFVSAKIKTPNGSLEVSWKKQNKEYEIQIIIPVNTVGIFAVPESFKVSAINSKQVSYPSEFELEPGAYNIVLERVREC
notes: as for B1
Consider B4, for which, under setting [1], the Km worked out at 0.51 ± 0.13 µM, the Vmax turned out to be 2.5 µM/min, the kcat was found to be 9.87e-05 s⁻¹ and the kcat/Km came out at 194 M⁻¹ s⁻¹.

B5: TpeRha (Thermotoga petrophila RKU-1; H570A) (protein)
chain: MIQACDLRCEYLTSPVLGLDVIPRFSWRLKGNGKKQTRYKIIVSDNFDDIERGIGNVWESEKDSSKNLNIEYEGPKLKAYKGYYWRVKLWDEKENGPWSETAYFEMGPLEDWRGKWITMPSPLSFKDPAHRHELFYAMYFRKEFLLNKEVEKARVYVSGLGVYELHLNGKRVGNNVLDPAPTDYNKVALYSTYDVTQYLTTGKNTIGVILGNGRHIRDYGYSKPKLYLQLLVFYKDGSREFICSDETWKVSHGPLKENGIYFGEVYDARDEISGWDSPGFDDRNWSEVEIVEGPSLKAQLIPVIRVCEVIKPKRLWLSSRGTFIVDFGKNISGWVKLRVNNGKRGEKIIIRYAEVLDPSMDRLDTRNLRLARATDEYILKGQGVEIYEPRFTYHGFRYVEVEDYPGTLTSDNIEAMFVHTDVEKVGDFACSSELLNKIHSCVVNSQLANLMGIPTDCPQRDERMGWLGDAQLTVEEAMYNFDMAAFYTKYLMDIKLSQKEDGSISDVAPPYWKRYPSDPAWGTAYATILWYLYFFYEDRRVLEEHYDSLKRYVEFLRKNSPNHLTKLGQAGDWCPPGDKFPKRTPLILTSTWYYYHDTLILSEIAKILGKKEDEHEYRKLAGEIKEAFNRHFLRKVEDHTGRIVCFYRGIKLSPKDRIPTTQTCNVLPLWNKMVPEECREDVFKVLERLIEVDNDTHFDTGIVGTRYILEVLSENGRKDLALKLLLKEDYPSFGYMIKNGATTLWERWEKLEGTGMNSHNHVMLGSVDTWFYKYLSGIKPVAPGWKKIRIEPYFADQIDFVSAKIKTPNGSLEVSWKKQNKEYEIQIIIPVNTVGIFAVPESFKVSAINSKQVSYPSEFELEPGAYNIVLERVREC
notes: as for B1
As for B5, under setting [4], the Km was 0.92 ± 0.08 µM, the Vmax came to 1.19 µM/min, the kcat worked out at 3.64e-05 s⁻¹ and the kcat/Km amounted to 39.5 M⁻¹ s⁻¹.

B6: TpeRha (Thermotoga petrophila RKU-1) (protein)
chain: MIQACDLRCEYLTSPVLGLDVIPRFSWRLKGNGKKQTRYKIIVSDNFDDIERGIGNVWESEKDSSKNLNIEYEGPKLKAYKGYYWRVKLWDEKENGPWSETAYFEMGPLEDWRGKWITMPSPLSFKDPAHRHELFYAMYFRKEFLLNKEVEKARVYVSGLGVYELHLNGKRVGNNVLDPAPTDYNKVALYSTYDVTQYLTTGKNTIGVILGNGRHIRDYGYSKPKLYLQLLVFYKDGSREFICSDETWKVSHGPLKENGIYFGEVYDARDEISGWDSPGFDDRNWSEVEIVEGPSLKAQLIPVIRVCEVIKPKRLWLSSRGTFIVDFGKNISGWVKLRVNNGKRGEKIIIRYAEVLDPSMDRLDTRNLRLARATDEYILKGQGVEIYEPRFTYHGFRYVEVEDYPGTLTSDNIEAMFVHTDVEKVGDFACSSELLNKIHSCVVNSQLANLMGIPTDCPQRDERMGWLGDAQLTVEEAMYNFDMAAFYTKYLMDIKLSQKEDGSISDVAPPYWKRYPSDPAWGTAYATILWYLYFFYEDRRVLEEHYDSLKRYVEFLRKNSPNHLTKLGQHGDWCPPGDKFPKRTPLILTSTWYYYHDTLILSEIAKILGKKEDEHEYRKLAGEIKEAFNRHFLRKVEDHTGRIVCFYRGIKLSPKDRIPTTQTCNVLPLWNKMVPEECREDVFKVLERLIEVDNDTHFDTGIVGTRYILEVLSENGRKDLALKLLLKEDYPSFGYMIKNGATTLWERWEKLEGTGMNSHNHVMLGSVDTWFYKYLSGIKPVAPGWKKIRIEPYFADQIDFVSAKIKTPNGSLEVSWKKQNKEYEIQIIIPVNTVGIFAVPESFKVSAINSKQVSYPSEFELEPGAYNIVLERVREC
notes: as for B1
B6: under setting [5], the Michaelis constant (Km) was found to be 4.33 ± 3.47 µM, the Vmax amounted to 0.098 µM/min, the kcat worked out at 4e-06 s⁻¹ and the kcat/Km was found to be 0.923 M⁻¹ s⁻¹.
